Experimental data published in US20260297194 (published 2026).
One block for each binder: values may come before it.

How the values were obtained:
[1] = target: human GPRC5A (human, UniProt Q8NFJ5); test: FACS, human GPRC5A-CHOK1 cells
[2] = target: T1, human GPRC5D (human, UniProt Q9NZD1); test: FACS, human GPRC5D-CHOK1 cells
T1 chain: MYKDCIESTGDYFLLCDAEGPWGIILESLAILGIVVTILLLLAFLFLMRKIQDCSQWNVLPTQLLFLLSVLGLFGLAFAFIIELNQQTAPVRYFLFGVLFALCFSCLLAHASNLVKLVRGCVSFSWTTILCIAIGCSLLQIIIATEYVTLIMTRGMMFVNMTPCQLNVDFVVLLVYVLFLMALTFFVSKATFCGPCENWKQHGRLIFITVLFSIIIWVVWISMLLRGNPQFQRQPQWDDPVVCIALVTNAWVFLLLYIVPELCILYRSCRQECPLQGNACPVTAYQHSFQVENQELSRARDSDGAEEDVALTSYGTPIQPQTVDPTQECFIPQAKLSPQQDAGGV

[3] = target: T1, human GPRC5D; test: FACS, RPMI8226 cells
[4] = target: T1, human GPRC5D; test: FACS, NCI-H929 cells
[5] = target: T1, human GPRC5D; test: FACS, NCI-H929 cells
[6] = target: T1, human GPRC5D; test: FACS, human GPRC5D-CHOK1 cells
[7] = target: T2, human CD3 (human, UniProt P07766); test: SPR
T2 chain: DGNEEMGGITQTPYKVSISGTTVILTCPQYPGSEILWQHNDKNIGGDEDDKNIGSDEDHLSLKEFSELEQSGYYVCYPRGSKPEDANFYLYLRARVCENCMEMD

[8] = target: T2, human CD3; test: FACS, Jurkat cells
[9] = target: T3, cynomolgus CD3 (cynomolgus monkey, UniProt Q95LI5); test: SPR
T3 chain: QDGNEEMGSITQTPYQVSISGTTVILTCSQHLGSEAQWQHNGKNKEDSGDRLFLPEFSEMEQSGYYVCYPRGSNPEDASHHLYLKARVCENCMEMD

Sequence of human GPRC5A (Q8NFJ5 whole entry): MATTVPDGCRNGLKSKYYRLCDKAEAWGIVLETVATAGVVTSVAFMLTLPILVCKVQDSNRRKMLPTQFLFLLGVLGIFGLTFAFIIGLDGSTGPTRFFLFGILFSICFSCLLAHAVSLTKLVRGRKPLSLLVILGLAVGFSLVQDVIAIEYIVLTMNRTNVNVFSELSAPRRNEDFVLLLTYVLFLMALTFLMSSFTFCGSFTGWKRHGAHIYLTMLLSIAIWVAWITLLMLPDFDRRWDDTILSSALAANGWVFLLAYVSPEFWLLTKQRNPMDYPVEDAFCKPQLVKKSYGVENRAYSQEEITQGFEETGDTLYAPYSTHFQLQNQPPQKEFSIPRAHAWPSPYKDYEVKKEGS

B2: Bispecific antibody 1 (GPRC5D arm) (antibody, V domains shown)
VH: QVQLVQSGAEVKKPGASVKVSCKASGYTFTSYIIHWVRQAPGQGLEWIGYINPYNDGTKYNEKFKGRVTMTSDTSTSTVYMELSSLRSEDTAVYYCARGGIRAFMNYWGQGTLVTVSS
VL: DIQMTQSPSSLSASVGDRVTITCKASQDVGTAVAWYQQKPGKAPKLLIYWASTRHTGVPSRFSGSGSGTDFTLTISSLQPEDFATYYCQHYISWTFGQGTKVEIK
EC50 [3]: 7.48 nM
EC50 [4]: 1.07 nM

B4: 18CH16H2L1 (antibody, V domains shown)
VH: QVQLVQSGAEVKKPGASVKVSCKASGYTFTSYIIHWVRQAPGQGLEWIGYINPYNDGTKYNEKFKGRVTMTSDTSTSTVYMELSSLRSEDTAVYYCARGGIRAFMNYWGQGTLVTVSS
VL: DIQMTQSPSSLSASVGDRVTITCKASQDVGTAVAWYQQKPGKAPKLLIYWASTRHTGVPSRFSGSGSGTDFTLTISSLQPEDFATYYCQHYISWTFGQGTKVEIK
EC50 [5]: 0.3 nM
EC50 [6]: 0.51 nM

B5: Bispecific antibody 1 (CD3 arm) (antibody, V domains shown)
VH: EVKLVESGGGLVQPGGSLKLSCAASGFTFNTYAMNWVRQAPGKGLEWVARIRSKYNNYATYYADSVKDRFTISRDDAKNTLYLQMNNLRTEDTAVYYCVRHGNFGNSYVSWFAYWGQGTLVTVSS
VL: QAVVTQEPSLTVSPGGTVTLTCRSSTGAVTTSNYANWVQQKPGQAPRGLIGGTNKRAPGTPARFSGSLLGGKAALTLSGAQPEDEAEYYCALWYSNLWVFGGGTKLTVL
modifications: Acro CDD-H52W1 for SPR; native CD3 on Jurkat cells for FACS
Kd [7]: 20 nM
EC50 [8]: 22.1 nM

B6: Bispecific antibody 2 (CD3 arm) (antibody, V domains shown)
VH: EVKLVESGGGLVQPGGSLKLSCAASGFTFNTYAMNWVRQAPGKGLEWVARIRSKYNNYATYYADSVKDRFTISRDDAKNTLYLQMNNLRTEDTAVYYCVRHGNFGNSYVSWFAYWGQGTLVTVSS
VL: QAVVTQEPSLTVSPGGTVTLTCRSSTGAVTTSNYANWVQQKPGQAPRGLIGGTNKRAPGTPARFSGSLLGGKAALTLSGAQPEDEAEYYCALWYSNLWVFGGGTKLTVL
modifications: Acro CDD-C52W4
Kd [9]: 18.9 nM

B7: Bispecific antibody 1 (CD3 arm) (antibody, V domains shown)
VH: EVKLVESGGGLVQPGGSLKLSCAASGFTFNTYAMNWVRQAPGKGLEWVARIRSKYNNYATYYADSVKDRFTISRDDAKNTLYLQMNNLRTEDTAVYYCVRHGNFGNSYVSWFAYWGQGTLVTVSS
VL: QAVVTQEPSLTVSPGGTVTLTCRSSTGAVTTSNYANWVQQKPGQAPRGLIGGTNKRAPGTPARFSGSLLGGKAALTLSGAQPEDEAEYYCALWYSNLWVFGGGTKLTVL
modifications: Acro CDD-C52W4
Kd [9]: 16.8 nM

B8: Bispecific antibody 2 (CD3 arm) (antibody, V domains shown)
VH: EVKLVESGGGLVQPGGSLKLSCAASGFTFNTYAMNWVRQAPGKGLEWVARIRSKYNNYATYYADSVKDRFTISRDDAKNTLYLQMNNLRTEDTAVYYCVRHGNFGNSYVSWFAYWGQGTLVTVSS
VL: QAVVTQEPSLTVSPGGTVTLTCRSSTGAVTTSNYANWVQQKPGQAPRGLIGGTNKRAPGTPARFSGSLLGGKAALTLSGAQPEDEAEYYCALWYSNLWVFGGGTKLTVL
modifications: Acro CDD-H52W1 for SPR; native CD3 on Jurkat cells for FACS
Kd [7]: 18.1 nM
EC50 [8]: 12.9 nM

Other lines, results leading:

binding result [1]: no binding
EC50 [2]: 3.89 nM
B1: 18CH-16 chimeric (antibody, V domains shown)
VH: EVQLQQSGPELVKPGASVKMSCKASGYTFTSYIIHWVKQKPGQGLEWIGYINPYNDGTKYNEKFKGKATLTSDRSSSTAYMEVSSLTSEDSAVYYCARGGIRAFMNYWGQGTSVTVSS
VL: DIVMTQSHKFMSTSVGDRVSITCKASQDVGTAVAWYQQKPGQSPKLLIYWASTRHTGVPDRFTGSGSGTDFTLSISNVQSEDLADYFCQHYISWTFGGGTNLEIK

EC50 [3]: 22.9 nM
EC50 [4]: 5.19 nM
B3: Bispecific antibody 2 (GPRC5D arm) (antibody, V domains shown)
VH: QVQLVQSGAEVKKPGASVKVSCKASGYTFTSYIIHWVRQAPGQGLEWIGYINPYNDGTKYNEKFKGRVTMTSDTSTSTVYMELSSLRSEDTAVYYCARGGIRAFMNYWGQGTLVTVSS
VL: DIQMTQSPSSLSASVGDRVTITCKASQDVGTAVAWYQQKPGKAPKLLIYWASTRHTGVPSRFSGSGSGTDFTLTISSLQPEDFATYYCQHYISWTFGQGTKVEIK
